Experimental data published in article PMC10786891, “Massively parallel profiling of RNA-targeting CRISPR-Cas13d”.

T1: EsCas13d, nuclease-dead (Eubacterium siraeum, UniProt B0MS50, R295A;H300A;R849A;H854A)
T1 sequence: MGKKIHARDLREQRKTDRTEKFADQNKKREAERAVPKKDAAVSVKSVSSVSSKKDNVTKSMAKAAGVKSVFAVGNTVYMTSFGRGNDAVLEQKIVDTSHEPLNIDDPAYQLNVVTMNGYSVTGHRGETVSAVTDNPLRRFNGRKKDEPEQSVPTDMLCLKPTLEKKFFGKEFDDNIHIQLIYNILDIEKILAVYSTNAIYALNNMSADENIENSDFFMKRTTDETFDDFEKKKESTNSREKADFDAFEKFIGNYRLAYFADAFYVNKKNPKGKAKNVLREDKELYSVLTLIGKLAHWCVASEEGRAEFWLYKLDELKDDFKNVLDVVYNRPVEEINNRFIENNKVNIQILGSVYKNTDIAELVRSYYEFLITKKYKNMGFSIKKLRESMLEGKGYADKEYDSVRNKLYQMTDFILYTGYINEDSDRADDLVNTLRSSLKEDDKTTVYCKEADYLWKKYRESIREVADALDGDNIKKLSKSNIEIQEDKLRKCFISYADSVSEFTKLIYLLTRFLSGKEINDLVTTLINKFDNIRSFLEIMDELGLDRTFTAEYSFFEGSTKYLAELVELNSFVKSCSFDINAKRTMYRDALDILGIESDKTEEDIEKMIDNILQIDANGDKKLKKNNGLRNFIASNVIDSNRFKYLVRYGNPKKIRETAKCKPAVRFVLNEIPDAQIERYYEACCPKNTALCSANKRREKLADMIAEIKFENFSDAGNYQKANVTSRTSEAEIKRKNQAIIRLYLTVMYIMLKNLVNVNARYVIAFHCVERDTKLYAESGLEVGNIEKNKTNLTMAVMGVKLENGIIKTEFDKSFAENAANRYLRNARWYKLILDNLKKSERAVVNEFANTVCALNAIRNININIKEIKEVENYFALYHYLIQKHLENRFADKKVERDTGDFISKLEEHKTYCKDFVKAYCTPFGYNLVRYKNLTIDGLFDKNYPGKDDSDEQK

B1: target 2 MT 5'PFS GAU 3'PFS ACA (mixed)
RNA 1: CACCCGUGCAAAAUUGCAGGGGUCUAAAACCUUCUCCAAAUUGUUUCAUCCU
RNA 2: GGGAAUGGAUCCACAUCUACGAAUUCGAUAGGAUGAAACAAUUUGGAGAAGACAAGAUCGGAAGAGCACACGU
B2: target 2 MT 5'PFS UAC 3'PFS AAU (mixed)
RNA 1: CACCCGUGCAAAAUUGCAGGGGUCUAAAACCUUCUCCAAAUUGUUUCAUCCU
RNA 2: GGGAAUGGAUCCACAUCUACGAAUUCUACAGGAUGAAACAAUUUGGAGAAGAAUAGAUCGGAAGAGCACACGU
B3: target 2 MT 5'PFS CUA 3'PFS CCU (mixed)
RNA 1: CACCCGUGCAAAAUUGCAGGGGUCUAAAACCUUCUCCAAAUUGUUUCAUCCU
RNA 2: GGGAAUGGAUCCACAUCUACGAAUUCCUAAGGAUGAAACAAUUUGGAGAAGCCUAGAUCGGAAGAGCACACGU
B4: target 2 MT 5'PFS AUU 3'PFS UCU (mixed)
RNA 1: CACCCGUGCAAAAUUGCAGGGGUCUAAAACCUUCUCCAAAUUGUUUCAUCCU
RNA 2: GGGAAUGGAUCCACAUCUACGAAUUCAUUAGGAUGAAACAAUUUGGAGAAGUCUAGAUCGGAAGAGCACACGU
B5: target 2 MT 5'PFS ACA 3'PFS UAA (mixed)
RNA 1: CACCCGUGCAAAAUUGCAGGGGUCUAAAACCUUCUCCAAAUUGUUUCAUCCU
RNA 2: GGGAAUGGAUCCACAUCUACGAAUUCACAAGGAUGAAACAAUUUGGAGAAGUAAAGAUCGGAAGAGCACACGU
B6: target 2 MT 5'PFS ACA 3'PFS UAU (mixed)
RNA 1: CACCCGUGCAAAAUUGCAGGGGUCUAAAACCUUCUCCAAAUUGUUUCAUCCU
RNA 2: GGGAAUGGAUCCACAUCUACGAAUUCACAAGGAUGAAACAAUUUGGAGAAGUAUAGAUCGGAAGAGCACACGU
B7: target 2 MT 5'PFS GAU 3'PFS ACC (mixed)
RNA 1: CACCCGUGCAAAAUUGCAGGGGUCUAAAACCUUCUCCAAAUUGUUUCAUCCU
RNA 2: GGGAAUGGAUCCACAUCUACGAAUUCGAUAGGAUGAAACAAUUUGGAGAAGACCAGAUCGGAAGAGCACACGU
B8: target 2 MT 5'PFS GUG 3'PFS UCA (mixed)
RNA 1: CACCCGUGCAAAAUUGCAGGGGUCUAAAACCUUCUCCAAAUUGUUUCAUCCU
RNA 2: GGGAAUGGAUCCACAUCUACGAAUUCGUGAGGAUGAAACAAUUUGGAGAAGUCAAGAUCGGAAGAGCACACGU
B9: target 2 MT 5'PFS UAC 3'PFS AAG (mixed)
RNA 1: CACCCGUGCAAAAUUGCAGGGGUCUAAAACCUUCUCCAAAUUGUUUCAUCCU
RNA 2: GGGAAUGGAUCCACAUCUACGAAUUCUACAGGAUGAAACAAUUUGGAGAAGAAGAGAUCGGAAGAGCACACGU
B10: target 2 MT 5'PFS UAC 3'PFS AAC (mixed)
RNA 1: CACCCGUGCAAAAUUGCAGGGGUCUAAAACCUUCUCCAAAUUGUUUCAUCCU
RNA 2: GGGAAUGGAUCCACAUCUACGAAUUCUACAGGAUGAAACAAUUUGGAGAAGAACAGAUCGGAAGAGCACACGU
B11: target 2 MT 5'PFS UAC 3'PFS UGC (mixed)
RNA 1: CACCCGUGCAAAAUUGCAGGGGUCUAAAACCUUCUCCAAAUUGUUUCAUCCU
RNA 2: GGGAAUGGAUCCACAUCUACGAAUUCUACAGGAUGAAACAAUUUGGAGAAGUGCAGAUCGGAAGAGCACACGU
B12: target 2 MT 5'PFS CAU 3'PFS CUC (mixed)
RNA 1: CACCCGUGCAAAAUUGCAGGGGUCUAAAACCUUCUCCAAAUUGUUUCAUCCU
RNA 2: GGGAAUGGAUCCACAUCUACGAAUUCCAUAGGAUGAAACAAUUUGGAGAAGCUCAGAUCGGAAGAGCACACGU
B13: target 2 MT 5'PFS GUU 3'PFS UUU (mixed)
RNA 1: CACCCGUGCAAAAUUGCAGGGGUCUAAAACCUUCUCCAAAUUGUUUCAUCCU
RNA 2: GGGAAUGGAUCCACAUCUACGAAUUCGUUAGGAUGAAACAAUUUGGAGAAGUUUAGAUCGGAAGAGCACACGU
B14: target 2 MT 5'PFS CCU 3'PFS UCC (mixed)
RNA 1: CACCCGUGCAAAAUUGCAGGGGUCUAAAACCUUCUCCAAAUUGUUUCAUCCU
RNA 2: GGGAAUGGAUCCACAUCUACGAAUUCCCUAGGAUGAAACAAUUUGGAGAAGUCCAGAUCGGAAGAGCACACGU
B15: target 2 MT 5'PFS GAU 3'PFS ACG (mixed)
RNA 1: CACCCGUGCAAAAUUGCAGGGGUCUAAAACCUUCUCCAAAUUGUUUCAUCCU
RNA 2: GGGAAUGGAUCCACAUCUACGAAUUCGAUAGGAUGAAACAAUUUGGAGAAGACGAGAUCGGAAGAGCACACGU
B16: target 2 MT 5'PFS GUG 3'PFS UCC (mixed)
RNA 1: CACCCGUGCAAAAUUGCAGGGGUCUAAAACCUUCUCCAAAUUGUUUCAUCCU
RNA 2: GGGAAUGGAUCCACAUCUACGAAUUCGUGAGGAUGAAACAAUUUGGAGAAGUCCAGAUCGGAAGAGCACACGU
B17: target 2 MT 5'PFS AAC 3'PFS AAA (mixed)
RNA 1: CACCCGUGCAAAAUUGCAGGGGUCUAAAACCUUCUCCAAAUUGUUUCAUCCU
RNA 2: GGGAAUGGAUCCACAUCUACGAAUUCAACAGGAUGAAACAAUUUGGAGAAGAAAAGAUCGGAAGAGCACACGU
B18: target 2 MT 5'PFS GUG 3'PFS UCU (mixed)
RNA 1: CACCCGUGCAAAAUUGCAGGGGUCUAAAACCUUCUCCAAAUUGUUUCAUCCU
RNA 2: GGGAAUGGAUCCACAUCUACGAAUUCGUGAGGAUGAAACAAUUUGGAGAAGUCUAGAUCGGAAGAGCACACGU
B19: target 2 MT 5'PFS UUC 3'PFS UAC (mixed)
RNA 1: CACCCGUGCAAAAUUGCAGGGGUCUAAAACCUUCUCCAAAUUGUUUCAUCCU
RNA 2: GGGAAUGGAUCCACAUCUACGAAUUCUUCAGGAUGAAACAAUUUGGAGAAGUACAGAUCGGAAGAGCACACGU
B20: target 2 MT 5'PFS GUG 3'PFS UCG (mixed)
RNA 1: CACCCGUGCAAAAUUGCAGGGGUCUAAAACCUUCUCCAAAUUGUUUCAUCCU
RNA 2: GGGAAUGGAUCCACAUCUACGAAUUCGUGAGGAUGAAACAAUUUGGAGAAGUCGAGAUCGGAAGAGCACACGU
B21: target 2 MT 5'PFS GUU 3'PFS UUC (mixed)
RNA 1: CACCCGUGCAAAAUUGCAGGGGUCUAAAACCUUCUCCAAAUUGUUUCAUCCU
RNA 2: GGGAAUGGAUCCACAUCUACGAAUUCGUUAGGAUGAAACAAUUUGGAGAAGUUCAGAUCGGAAGAGCACACGU
B22: target 2 MT 5'PFS UAC 3'PFS AAA (mixed)
RNA 1: CACCCGUGCAAAAUUGCAGGGGUCUAAAACCUUCUCCAAAUUGUUUCAUCCU
RNA 2: GGGAAUGGAUCCACAUCUACGAAUUCUACAGGAUGAAACAAUUUGGAGAAGAAAAGAUCGGAAGAGCACACGU
B23: target 2 MT 5'PFS CAU 3'PFS CUG (mixed)
RNA 1: CACCCGUGCAAAAUUGCAGGGGUCUAAAACCUUCUCCAAAUUGUUUCAUCCU
RNA 2: GGGAAUGGAUCCACAUCUACGAAUUCCAUAGGAUGAAACAAUUUGGAGAAGCUGAGAUCGGAAGAGCACACGU
B24: target 2 MT 5'PFS ACA 3'PFS UAC (mixed)
RNA 1: CACCCGUGCAAAAUUGCAGGGGUCUAAAACCUUCUCCAAAUUGUUUCAUCCU
RNA 2: GGGAAUGGAUCCACAUCUACGAAUUCACAAGGAUGAAACAAUUUGGAGAAGUACAGAUCGGAAGAGCACACGU
B25: target 2 MT 5'PFS CGC 3'PFS UUG (mixed)
RNA 1: CACCCGUGCAAAAUUGCAGGGGUCUAAAACCUUCUCCAAAUUGUUUCAUCCU
RNA 2: GGGAAUGGAUCCACAUCUACGAAUUCCGCAGGAUGAAACAAUUUGGAGAAGUUGAGAUCGGAAGAGCACACGU
B26: target 1 C6U,A16U (mixed)
RNA 1: CACCCGUGCAAAAAUGCAGGGGUCUAAAACUGAGCGGAUAACCUCUCUAUGG
RNA 2: GGGAAUGGAUCCACAUCUACGAAUUCGUACCAUAGUGAGGUUAUCUGCUCACCGAGAUCGGAAGAGCACACGU
B27: target 1 del7,del16 (mixed)
RNA 1: CACCCGUGCAAAAAUGCAGGGGUCUAAAACUGAGCGGAUAACCUCUCUAUGG
RNA 2: GGGAAUGGAUCCACAUCUACGAAUUCGUACCAUAGGAGGUUAUCGCUCACCGAGAUCGGAAGAGCACACGU
B28: target 1 A18C,U19A (mixed)
RNA 1: CACCCGUGCAAAAAUGCAGGGGUCUAAAACUGAGCGGAUAACCUCUCUAUGG
RNA 2: GGGAAUGGAUCCACAUCUACGAAUUCGUACCAACGAGAGGUUAUCCGCUCACCGAGAUCGGAAGAGCACACGU

Each binder was assayed against T1, EsCas13d, nuclease-dead (assay: crRNA (strand 1, pre-loaded); Mg2+; 40 mM Tris-HCl pH 7.5, 150 mM NaCl, 6 mM MgCl2, 1 mM DTT, 0.1% Tween-20, 0.2 mg/ml BSA; 25 C; 10 min per concentration, then washed). Conditions: tags: His6-TwinStrep-SUMO cleaved; N-terminal SNAP kept (SNAP-Surface 488); label: 3' end held by stalled T7 RNA polymerase.
B1 showed a Kd of 10.6 ± 1.6 nM. For B2, the Kd was 10 ± 4 nM. With B3 the Kd was about 49 nM. B4 was tested, and the Kd was 10.7 ± 0.6 nM. For B5, the Kd was 4.3 ± 1.4 nM. With B6 the Kd was 5.1 ± 1.1 nM. B7 showed a Kd of 17.7 ± 3.4 nM. In the case of B8, the Kd is reported as 17.3 ± 2.7 nM. Work on B9 yielded a Kd of 5.8 ± 1 nM. B10 gave a Kd of 11 ± 4 nM. In the case of B11, the Kd is reported as 6 ± 0.8 nM. Work on B12 yielded a Kd of 6.8 ± 0.8 nM. B13 was tested, and the Kd was 51 ± 11 nM. B14 gave a Kd of 1.74 ± 0.18 nM. Work on B15 yielded a Kd of 17.2 ± 2.2 nM. B16 was tested, and the Kd was 42 ± 6 nM. B17 was tested, and the Kd was 10 ± 5 nM. B18 gave a Kd of 18.9 ± 1.8 nM. Work on B19 yielded a Kd of 17 ± 6 nM. In the case of B20, the Kd is reported as 18.2 ± 2.2 nM. Work on B21 yielded a Kd of 31 ± 5 nM. B22 gave a Kd of 6 ± 1.4 nM. Work on B23 yielded a Kd of 5.4 ± 0.8 nM. Binder B24 has a Kd of about 18 nM. Binder B25 has a Kd of 8.1 ± 1.4 nM. B26 showed a Kd of 37.1 ± 2.6 nM. B27 showed a Kd of 45 ± 6 nM. B28 gave a Kd of 49 ± 4 nM.
